Laboratory results from patent EP2060581A1 (Chemotherapeutisches Forschungsinstitut Georg-Speyer-Haus, dated 2009).

Molecular target: T1, ErbB2 receptor (UniProt P04626 23-1255)
T1 construct: Whole endogenous receptor from cell extracts, immunoprecipitated with an ErbB2 antibody
Assay: co-immunoprecipitation from SK-BR3 membrane extracts with an ErbB2 antibody, Western blot with Flag antibody

B1: mt bTrx-All-7 (designed binder)
chain: MSDKIIHLTDDSFDTDVLKADGAILVDFWAEWSGPPLNFYRHGFLPNAVMASMLEVGPWFELLGPCGLAGHPLSSLRIGPSKMIAPILDEIADEYQGKLTVAKLNIDQNPGTAPKYGIRGIPTLLLFKNGEVAATKVGALSKGQLKEFLDANLA
notes: Purified recombinant protein; Largely monomeric; also called All-7 aptamer in mutated bTrx (mt); All-7 in the mutated scaffold; not shown: Flag-tag, one or two His-tags and a 9R protein transduction domain
fold increase in binding against wt bTrx-All-7: 2.4 fold
